According to patent publication US6613506B1, “Compositions and methods for inhibiting human immunodeficiency virus infection by down-regulating human cellular genes” (Subsidiary No. 3, Inc., priority 2000, dated 2003):

tested on: HIV-1IIIB; experiment: Selection of GSEs from HeLa cell library using productive infection of CEM-ss cells; format: cell-based
Experimental: Additionally, a normalized RFE library made from HeLa cells was transferred into CEM-ss cells and the neo resistant population was infected with TCID50 of 3000/10^6 cells of HIV-1IIIB. This RFE library was represented by 50×10^6 independent recombinant clones. Four and seven days after infection, a purified anti-CD4 monoclonal antibody, L77 (available from Becton Dickinson), was added at 5 Φg/mL to prevent syncytia formation. Syncytia formation is thought to be prevented by blocking the interaction between gp120 expressed on the surface of an infected cell and CD4 on the surface of an uninfected cell. […] At 10-12 days after infection, CD4^+, p24^− cell population representing uninfected cells were sorted. Genomic DNA from the CD4^+, p24^− cells was purified and used for PCR amplification of inserts with the vector-derived primers. The amplified mixture was digested with EcoRI and BamHI and cloned back into the retroviral vector. The selection was repeated for additional rounds.
The selection of GSEs from HeLa cell library using productive infection of CEM-ss cells isolated […] additional nucleic acid molecules which have substantial sequence identity with other cellular genes.
The selection of GSEs from a HeLa cell library using productive infection of CEM-ss cells isolated 21 additional nucleic acid molecules which have substantial sequence identity with other cellular genes. […] The complement of SEQ ID NO:25 is represented by SEQ ID NO:26. […] The complement of SEQ ID NO:27 is represented by SEQ ID NO:28. […] The complement of SEQ ID NO:29 is represented by SEQ ID NO:30. […] The complement of SEQ ID NO:31 is represented by SEQ ID NO:32. […] The complement of SEQ ID NO:33 is represented by SEQ ID NO:34. […] The complement of SEQ ID NO:35 is represented by SEQ ID NO:36. […] The complement of SEQ ID NO:37 is represented by SEQ ID NO:38. […] The complement of SEQ ID NO:39 is represented by SEQ ID NO:40. […] The complement of SEQ ID NO:41 is represented by SEQ ID NO:42. […] The complement of SEQ ID NO:43 is represented by SEQ ID NO:44. […] The complement of SEQ ID NO:45 is represented by SEQ ID NO:46. […] The complement of SEQ ID NO:47 is represented by SEQ ID NO:48. […] The complement of SEQ ID NO:49 is represented by SEQ ID NO:50. […] The complement of SEQ ID NO:51 is represented by SEQ ID NO:52. […] The complement of SEQ ID NO:53 is represented by SEQ ID NO:54. […] The complement of SEQ ID NO:55 is represented by SEQ ID NO:56. […] The complement of SEQ ID NO:57 is represented by SEQ ID NO:58. […] The complement of SEQ ID NO:59 is represented by SEQ ID NO:60. […] The complement of SEQ ID NO:61 is represented by SEQ ID NO:62. […] The complement of SEQ ID NO:77 is represented by SEQ ID NO:78. […] The complement of SEQ ID NO:87 is represented by SEQ ID NO:88. […] The complement of SEQ ID NO:99 is represented by SEQ ID NO:100. […] The complement of SEQ ID NO:101 is represented by SEQ ID NO:102. […] The complement of SEQ ID NO:103 is represented by SEQ ID NO:104. […] The complement of SEQ ID NO:105 is represented by SEQ ID NO: 106. […] The complement of SEQ ID NO:107 is represented by SEQ ID NO:108. […] The complement of SEQ ID NO:109 is represented by SEQ ID NO:110. […] The complement of SEQ ID NO:111 is represented by SEQ ID NO:112. […] The complement of SEQ ID NO:113 is represented by SEQ ID NO:114. […] The complement of SEQ ID NO:115 is represented by SEQ ID NO:116. […] The complement of SEQ ID NO:117 is represented by SEQ ID NO:118.

| Molecule | HIV-suppressive activity of the GSE and active orientation |
| --- | --- |
| CF-630: GSE, SEQ ID NO:59, antisense; p40 protein gene (nucleic acid, listed as Homo sapiens, chemistry not fully specified, p40 protein gene) antisense: GCTTAGAGTATGGAGAACATGGATGCAGAACACCAGACACCCCTTTCTCTCTCTTTGAAGGAATGGCTGGAACAATATATTTCCTGGCTGACCTGCTAGTCCCCACAAAAGCCAGGTTCG | interferes with HIV replication as an antisense molecule |
| CF-619: GSE, SEQ ID NO:53, sense; Arg/Abl interacting protein (ArgBP2A) gene (nucleic acid, listed as Homo sapiens, chemistry not fully specified) sense: GTTCCACCTCCAGTCCCGCCGCTTCGACCAAGAGATCGGTCTTCAACAGAAAAGCATGACTGGGATCCTCCAGA | interferes with HIV replication in the sense orientation |
| CF-579: GSE, SEQ ID NO:61, sense; glucosidase alpha II gene (nucleic acid, listed as Homo sapiens) sense: AGTTGGTATCAATGGAGTGGGAGAGGTGAGGAGATCACAAGAGGAATTTGGAGCCCAGGGTCAGCCCTCTCATCCTGCCCAAATGTTGGCAGAATCTGGGTCTTAGACTAGCATAAGTGAAGTCTGGGGAGGGCCGAAC | interferes with HIV replication in a sense orientation |
| H1C-16E3: GSE, SEQ ID NO:111, antisense; FYN gene (nucleic acid, listed as Homo sapiens) antisense: TTTCTCGCTTGTATTCCTGAAGATGAGTTTGGCCCTGTGACTCTGAAGGGTCGGCTATTAACTGAGACATCCTCTGTCGGGTTGCCCCCCGTGTTATATTTCGCCATGAGGGACTTTACATCTGCCTTTCCATCCTACAAACATAGGGAACAAAAAATAGCTGAGAGACA | interferes with HIV replication as an antisense molecule |
| H1C-11H9: GSE, SEQ ID NO:99, antisense; human SHIP gene (nucleic acid, listed as Homo sapiens) antisense: GGAACTCCAGGTAGAATTTGGTCTGGGACTTGGTCTTCAATGTGGCATAGCACCTGAGAAACTCAAT | interferes with HIV replication as an antisense molecule |
| H1C-2F9: GSE, SEQ ID NO:103, antisense; ArgRS gene (nucleic acid, listed as Homo sapiens) antisense: ATACTTTAATTTTAAATTTTCTTCTTGTAACTGCTCCAAATTCGGAGAAGCTCCTAAACAGCCACAGTTTTTCAACCGGTCAATTTCAGCAGTCAGAGATTTAATCTCTTCTTCCTGCTGCAGCAGCCGCGCGGAGCACTCAGACATCAGTACGTCCATCCTCCCATCAGCG | interferes with HIV replication as an antisense molecule |
| H1C-6G5: GSE, SEQ ID NO:117, antisense; human glutaredoxin gene (nucleic acid, listed as Homo sapiens) antisense: TTTAAAGGGACAGCTTCGAAGACATTTCCATCTGGTATACTTCACTAGTTAGCAATGCCCAGGAATGC | interferes with HIV replication as an antisense molecule |
| CF-42: GSE, SEQ ID NO:37, sense; squalene synthetase gene (nucleic acid, listed as Homo sapiens, chemistry not fully specified, squalene synthetase gene) sense: TGGCTGGGACCTTTAGGAAAGTGAAATGCAGGTGAGAAGAACCTAAACATGAAAGGAAAGGGTGCCTCATCCCAGCAACCTGTCCTTGTGGGTGATGATCACTGTGCTGCTTGTGGCTCAT | interferes with HIV replication in the sense orientation |
| H1C-23G2: GSE, SEQ ID NO:113, antisense; human CTSB gene (nucleic acid, listed as Homo sapiens) antisense: GCCGGTGGCTCACATGGCCTGTCTGCACTGTAACCACAGGCTGGGATGTAGCCAGGACTTGGTCTCCTTGGAAGACAGGTCTGATGTTTGGCCAATCCAGTCCTTCAGACCCTGTCTGAAACTTGTA | interferes with HIV replication as an antisense molecule |
| H1C-37E11: GSE, SEQ ID NO:115, antisense; human cathepsin L gene (nucleic acid, listed as Homo sapiens) antisense: GTCGACCTTCCTCTTTACCGTCCACCAGCTCACACAGTGGGGTAGCTGGCTGCTGAGGCAATTCCACAATGGTTTCTCT | interferes with HIV replication as an antisense molecule |
| CF-547: GSE, SEQ ID NO:51, antisense; recepin endoprotease gene (nucleic acid, listed as Homo sapiens, chemistry not fully specified, recepin endoprotease gene) antisense: ACAGAAGGAGAGACCGAATACAAATTTGAATGGCAGAAAGGAGCCCCACGAGAAAAATATGCCAAAGATGACATGAACATCAGAGATCAGCCCTTTA | interferes with HIV replication as an antisense molecule |
| CF-287: GSE, SEQ ID NO:77, sense; Na+-D-glucose cotransport regulator gene (nucleic acid, listed as Homo sapiens) sense: CAGGTTGTCTTTAAGATGTTCTTTTAGACAGCTGCACATTGTAGACCCTTTCACCTGCCCTACACCAAAGATGTACGATGCACTAGGAAACTGCTCATAGGATTTCTGTCAGCT | interferes with HIV replication in a sense orientation |
| CF-335: GSE, SEQ ID NO:35, antisense; protein phosphatase 2A gene (nucleic acid, listed as Homo sapiens, chemistry not fully specified, protein phosphatase 2A gene) antisense: GGTAAGGGTAGGGCACTTTTAATTTAAATGACTTCTTGCACCATCTTGCCTAATGGACTAGATTGGACTGTATCAACATTGATTTACTC | interferes with HIV replication as an antisense molecule |
| CF-322: GSE, SEQ ID NO:31, sense; anti-proliferative factor (BTG-1) gene (nucleic acid, listed as Homo sapiens) sense: CGACAGCTGCAGACCTTCAGCCAGAGCCTGCAGGAGCTGCTGGCAGAACATTATAAACATCACTGGTTCCCAGAAAA | interferes with HIV replication in the sense orientation |
| CF-622: GSE, SEQ ID NO:87, antisense; Rox gene (nucleic acid, listed as Homo sapiens, chemistry not fully specified, Rox gene) antisense: GGAAAAAAAAAAAAACTACAAAAACCCTAATTTTGTACATACTGTATTTTTACTATTGAACTGTATTCTAGTGGCTGTTCATGCTCCAAGACTTTAGTTACCGAGACATGAATACTATCCATG | interferes with HIV replication as an antisense molecule |
| CF-320: GSE, SEQ ID NO:27, sense; double-strand break DNA repair gene (nucleic acid, listed as Homo sapiens) sense: GCCTGCACATGACGATATGGATGAGGATGATAATGTATCAATGGGTGGGCCTGATAGTCCTGATTCAGTGGATCCCGT | interferes with HIV infection in the sense orientation |
| H1C-16A3: GSE, SEQ ID NO:101, antisense; human GNB2L1 gene (nucleic acid, listed as Homo sapiens) antisense: AGGCGGAGAGGATCATGTCCGGGAACTGCGGGGTAGTAGCGATCTGGGTTACCCAGCCGTTGTGGCCCTTGAGGGTGCCACGAAGGGTCATCTGCTCA | interferes with HIV replication as an antisense molecule |
| CF-624: GSE, SEQ ID NO:57, sense; p18 protein gene (nucleic acid, listed as Homo sapiens, chemistry not fully specified, p18 protein gene) sense: TGTTCTGAGAACTGACTTTCTCCCCATCCCCTTCCTAAATATCCAAAGACTGTACTGGCCAGTGTCATTTTATTTTTTCCCTCCTGACAAT | interferes with HIV replication in a sense orientation |
